Assay results reported in patent US7166733B2, “O,O'-Amidomalonate and N,O-Amidomalonate platinum complexes” (priority 2000, dated 2007).

Tests used:
[1] = Platinum release from PBS; assay type: physicochemical; settings: 37° C.
Method: The percent of small platinum species released over time was measured by dissolving about 30 mg of the polymer-platinum conjugate in 15 mL of phosphate buffered saline (10 mM phosphate, 123 mM Cl^−) and incubating the solution at 37° C. in a water bath. At indicated times, 2.0 mL aliquots were transferred to a centrifugal filter with a 3 kDa nominal molecular weight cutoff (Centricon YM-3 from Millipore) and spun until >1.5 mL of filtrate had accumulated. The timed filtrates and the original solution were analyzed for platinum by ICP-OES. The percent of small Pt species released was determined using the formula: ((ppm Pt in filtrate)/(ppm Pt in stock solution))×100.

Bl6FI0 melanoma cells = assay: Clonogenic (colony-formation) assay; assay type: cell-based, murine; settings: 7 days incubation
Method: The relative cytotoxic activity of various O,O′—Pt chelate analogs were evaluated in vitro by means of a clonogenic (colony-formation) assay employing a tissue culture of Bl6FI0 melanoma cells. In this way, the activity of the analogs was compared to that of cisplatin and carboplatin. The effect of conversion to an N,O—Pt chelate was also evaluated. Briefly, cells were seeded into culture dishes and allowed to attach. The cultures were incubated for 7 days in medium containing the desired concentration of the test agent. After fixation, the number of cell clusters containing >50 cells was scored as a colony. Each concentration of test agent was assayed in triplicate. The mean number of colonies in each of the triplicate dishes was divided by the mean number of colonies in the control (no test agent) dishes to obtain a percent survival value for each concentration of test agent. The IC50 (concentration resulting in 50% inhibition of growth) of each of the agents was determined by linear regression analysis using the data values directly above and below the 50% survival point.

[2] = Maximum tolerated dose on a qd×5 schedule in the B16 melanoma model; assay type: in vivo; settings: IP, C57BL/6 mice
Method: (§1) A study was conducted to compare the antitumor activity of poly(HPMA)-GFLG-Ama=Pt=DACH with that of carboplatin in the B16 melanoma model when each agent was administered as an IP injection daily for 5 days (qd×5). The poly(HPMA)-GFLG-Ama=Pt=DACH material was also given at days 15, 16, and 17. Both compounds were given at their respective maximum tolerated (equitoxic) doses on this regimen.
(§2) Female C57BL/6 mice weighing 18–20 g were implanted s.c. with 10^6 B16F10 tumor cells harvested from tissue culture. The size of the resulting tumor was followed individually throughout the study. Tumor mass (in mg) was calculated as (W^2×L)/2, where W is the shorter tumor dimension and L is the longer tumor dimension. Individual treatments were administered when the tumor was 75–100 mg in size. The injection volume was 0.04 mL per gram of body weight, and the drug was administered intraperitoneally. Tumor mass and body weight were measured daily. Data are expressed as the mean±SEM of the tumor mass and are plotted until 50% of the animals in each treatment group have died or been sacrificed due to excessive tumor mass, tumor ulceration, or morbidity. For comparison of the activity of different agents, each administered at its respective maximum tolerated doses (MTD), the MTD is defined as that dose which reproducibly induces no more than 10% (1 out of each 10 animals per group) early toxic deaths not attributable to tumor burden, and which results in a mean maximum body weight loss (i.e., the group mean of the nadir in each individual mouse weight, regardless of the day on which it occurred) of 10–15%, followed by recovery in lost weight.
(§3) A study was conducted to compare the antitumor activity of p(HPMA)-GFLG-C3-Sulf-Ama=Pt=DACH with that of carboplatin in the B16 melanoma model when each agent was administered as an IP injection daily for 5 days (qd×5). Both compounds were given at their respective maximum tolerated (equitoxic) doses on this regimen.
(§4) The methods utilized in this study were identical to those utilized for the p(HPMA)-GFLG-C3-Sulf-Ama=Pt=DACH study of Example 38.

B16 melanoma = assay: Antitumor activity in the B16 melanoma model, multi-dose protocol; assay type: in vivo; settings: s.c. B16F10 in C57BL/6 mice
Method: as §1, §2, §3, §4

[3] = Single-dose IV maximum tolerated dose study; assay type: in vivo; settings: mice, highest dose with no drug-induced deaths
Source text: For these studies, the MTD was defined as the highest dose evaluated in which no mouse deaths resulted from drug-induced toxicity.

[4] = Dependence on pH of the isomer ratio of O,O′—Pt to N,O—Pt chelate (195Pt NMR of timed aliquots); assay type: physicochemical
Method: The percent of O,O′- and N,O-chelate in timed aliquots of reactions mixtures were determined by removing enough of the reaction mixture (4–15 mL depending on concentration) to give greater than 100 mg of Pt-chelate if only ^195Pt NMR spectroscopy was to be done or about 200 mg if % Pt, and % H2O were also to be determined. The aliquots were purified by ultrafiltration using a Centricon Plus-20 centrifugal filter with a 5 kDa Biomax membrane from Millipore. The charged device was spun at the recommended RCF until less than 1 mL remained. The filtrate was discarded, the retentate was diluted with 15–18 mL water and the sample was centrifuged. This was repeated once more, and the retentate was lyophilized to give the sample for analysis.
^195Pt NMR spectra were obtained from a filtered 0.70 mL solution in 93/7 H2O/D2O in a 5 mm tube. Enough sample (80–120 mg) was used to give a solution that was >50 mM in platinum. The probe was tuned for each sample. A pulse width of 90 degrees, an acquisition time of 10 msec, a spectral window of 100 kHz and no delay was used. The transmitter was tuned to approximately midway between the O,O′—Pt and N,O—Pt chelates shifts (−1896 ppm for cis-diammine Pt and at −2450 for DACH—Pt). Between 50,000 and 1 million transients were typically required to obtain a sufficient (>35:1) s/n ratio for the cis-diammine-Pt and DACH=Pt species, respectively. The resulting FID was increasingly left-shifted until a flat baseline was obtained, a 100 Hz line broadening was applied, and a Fourier fill of 2048 was applied before processing. Integral regions were set and the spectrum's baseline was subjected to a spline fit using VNMR software v6.1. The sample was referenced externally to a 100 mM sample of K2PtCl4 in 95/5H2O/D2O and 100 mM HCl at −1624 ppm. This was also used to determine the 90 degree pulse width and T1.
Four 50 mL Centrifuge tubes were each charged with 1.00 g of p(HPMA)-GFLG-Ama=Pt(NH3)2 (either 100% N,O-chelate) or a 92% O,O-chelate, 8% N,O-chelate mixture. These materials were dissolved in 27 mL Milli-Q water (approx a 4 wt % solution) and adjusted to the pH ranges desired using 1 M NaOH or 5% HClO4 as appropriate. The samples were then heated, with stirring, in a 38° C. water bath and maintained within their specified pH ranges. Timed aliquots were taken and frozen until a suitable time at which point the solutions were concentrated by centrifugal ultrafiltration (one spin down at 4800 rpm, 30° C.) and then transferred to an NMR tube. A small amount of D2O was added to each tube and the ^195Pt NMR spectra were recorded.

[5] = Example 38 study, IP qd×5 at MTD (polymer also days 15, 16, 17)
[6] = Example 39 study, IP qd×5 at MTD
[7] = pH 5.0–5.5, 38° C., 100 mM ClO4^−, 1 h
[8] = pH 5.0–5.5, 38° C., 100 mM ClO4^−, 5 h
[9] = pH 5.0–5.5, 38° C., 100 mM ClO4^−, 8 h
[10] = pH 5.0–5.5, 38° C., 100 mM ClO4^−, 22 h
[11] = pH 5.0–5.5, 38° C., 100 mM Cl^−, 1 h
[12] = pH 5.0–5.5, 38° C., 100 mM Cl^−, 5 h
[13] = pH 5.0–5.5, 38° C., 100 mM Cl^−, 8 h
[14] = pH 5.0–5.5, 38° C., 100 mM Cl^−, 22 h

## poly(HPMA)=GFLG-Ama=Pt=DACH, O,O′—Pt chelate [Example 5]
[1]; 3 hours
  Pt release in PBS: 6.0%
[1]; 24 hours
  Pt release in PBS: 10.9%
Bl6FI0 melanoma cells
  IC50: 1 µM

## p(HPMA)-GFLG-Ama═Pt═(NH3)2, 90 kDa, O,O′—Pt
Bl6FI0 melanoma cells
  IC50: 0.9 µM

## p(HPMA)-GFLG-Ama═Pt═(NH3)2, 45 kDa, O,O′—Pt
Bl6FI0 melanoma cells
  IC50: 1 µM

## poly(HPMA)-GG-NH(CH2)3SO2Ama=Pt=DACH, Approx. 22 kDa [Example 25]
[1]; 3 hours
  Pt release in PBS: 1.0%
[1]; 24 hours
  Pt release in PBS: 1.93%

## N.N.O=C([O-])C1(C(=O)[O-])CCC1.[Pt+2] [Carboplatin, reference compound]
[2]
  maximum tolerated dose: 60 mg/kg
  maximum tolerated dose, equivalent in Pt: 32 mg Pt/kg
B16 melanoma; [5]
  inhibition of tumor growth: modest inhibition of tumor growth
B16 melanoma; [6]
  inhibition of tumor growth: very little inhibition of tumor growth
Bl6FI0 melanoma cells
  IC50: 2.4 µM

## poly(HPMA)-GFLG-Ama=Pt(NH3)2, N,O—Pt chelate, >351 kDa [Example 14]
[1]; 3 hours
  Pt release in PBS: 0.68%
[1]; 24 hours
  Pt release in PBS: 2.28%

## poly(HPMA)-GFLG-C3-Sulf-Ama=Pt(NH3)2 N,O-chelate [Example 28]
[1]; 3 hours
  Pt release in PBS: 3.02%
[1]; 24 hours
  Pt release in PBS: 5.44%

## N.N.[Cl][Pt][Cl] [Cisplatin, cis-diamminedichloroplatinum(II), reference compound]
Bl6FI0 melanoma cells
  IC50: 0.5 µM

## poly(HPMA)-GFLG-Ama=Pt=DACH, N,O—Pt chelate [Example 6]
Bl6FI0 melanoma cells
  IC50: < 4 µM

## poly(HPMA)-GFLG-Ama=Pt(NH3)2O,O′—Pt chelate [Example 3]
[3]
  maximum tolerated dose (MTD): 80–100 mg PVkg
[4]; pH 3.0–3.5, 38° C., 1 h
  N,O— chelate: 0%
  O,O— chelate: 100%
[4]; pH 3.0–3.5, 38° C., 5 h
  N,O— chelate: 3%
  O,O— chelate: 97%
[4]; pH 3.0–3.5, 38° C., 20 h
  N,O— chelate: 2%
  O,O— chelate: 98%
[4]; pH 4.0–4.5, 38° C., 1 h
  N,O— chelate: 25%
  O,O— chelate: 75%
[4]; pH 4.0–4.5, 38° C., 5 h
  N,O— chelate: 21%
  O,O— chelate: 79%
[4]; pH 4.0–4.5, 38° C., 20 h
  N,O— chelate: 28%
  O,O— chelate: 72%
[4]; [7]
  N,O— chelate: 31%
  O,O— chelate: 69%
[4]; [8]
  N,O— chelate: 56%
  O,O— chelate: 44%
[4]; [9]
  N,O— chelate: 67%
  O,O— chelate: 33%
[4]; [10]
  N,O— chelate: 60%
  O,O— chelate: 40%
[4]; [11]
  N,O— chelate: 31%
  O,O— chelate: 69%
[4]; [12]
  N,O— chelate: 54%
  O,O— chelate: 46%
[4]; [13]
  N,O— chelate: 68%
  O,O— chelate: 32%
[4]; [14]
  N,O— chelate: 68%
  O,O— chelate: 32%
[4]; pH 5.0–5.5, 38° C., 1 h
  N,O— chelate: 33%
  O,O— chelate: 67%
[4]; pH 5.0–5.5, 38° C., 5 h
  N,O— chelate: 49%
  O,O— chelate: 51%
[4]; pH 5.0–5.5, 38° C., 20 h
  N,O— chelate: 65%
  O,O— chelate: 35%
[4]; pH 6.0–6.5, 38° C., 1 h
  N,O— chelate: 43%
  O,O— chelate: 57%
[4]; pH 6.0–6.5, 38° C., 5 h
  N,O— chelate: 66%
  O,O— chelate: 34%
[4]; pH 6.0–6.5, 38° C., 20 h
  N,O— chelate: 91%
  O,O— chelate: 9%
Bl6FI0 melanoma cells
  IC50: 0.8 to 1.1 µM

## poly(HPMA)-GG-Ama=Pt(NH3)2 N,O Chelate [Example 17]
[1]; 3 hours
  Pt release in PBS: 1.4%
[1]; 24 hours
  Pt release in PBS: 4.6%

## p(HPMA)-GFLG-Ama=Pt=DACH
[2]
  maximum tolerated dose: 100 mg Pt/kg
B16 melanoma; [5]
  inhibition of tumor growth: tumor growth was substantially slowed and prolonged

## poly(HPMA)-GFLG-NH(CH2)3SO2-Ama=Pt=DACH N,O-chelate [Example 29]
[2]
  maximum tolerated dose: 75 mg Pt/kg
B16 melanoma; [6]
  inhibition of tumor growth: more marked inhibition in tumor growth
[1]; 3 hours
  Pt release in PBS: 2.12%
[1]; 24 hours
  Pt release in PBS: 4.54%

## poly(HPMA)-GGGG-Ama=Pt=1R,2R-DACH N,O-Chelate [Example 21]
[1]; 3 hours
  Pt release in PBS: 0.972%
[1]; 24 hours
  Pt release in PBS: 3.173%

## poly(HPMA)-GG-Ama=Pt=DACH N,O-Chelate [Example 18]
[1]; 3 hours
  Pt release in PBS: 1.3%
[1]; 24 hours
  Pt release in PBS: 5.5%
